Experimental data as given in US20230287109A1 (INGENIA THERAPEUTICS, published 2023).

B1: PRO593, PEGylated with two 20 kDa linear PEG (Fc fusion)
heavy: EVQLVQSGAEVKKPGASVKVSCKASGYSFTSYWMNWVRQAPGQGLEWMGMIHPSDSETRLNQKFMDRVTMTRDTSTSTVYMELSSLRSEDTAVYYCARGLYGNSWGQGTLVTVSSASTKGPSVFPLAPSSKSTSGGTAALGCLVKDYFPEPVTVSWNSGALTSGVHTFPAVLQSSGLYSLSSVVTVPSSSLGTQTYICNVNHKPSNTKVDKKVEPKSSDKTHTSPPSPAPEAAGGPSVFLFPPKPKDTLMISRTPEVTCVVVDVSHEDPEVKFNWYVDGVEVHNAKTKPREEQYNSTYRVVSVLTVLAQDWLNGKEYKCKVSNKALPAPIEKTISKAKGQPREPQVYTLPPSRDELTKNQVSLTCLVKGFYPSDIAVEWESNGQPENNYKTTPPVLDSDGSFFLYSKLTVDKSRWQQGNVFSCSVMHEALHNHYTQKSLSLSPGKGGGGSGGGGSGGGGSGGGGSSDTGRPFVEMYSEIPEIIHMTEGRELVIPCRVTSPNITVTLKKFPLDTLIPDGKRIIWDSRKGFIISNATYKEIGLLTCEATVNGHLYKTNYLTHRQTNTIIDVVLSPSHGIELSVGEKLVLNCTARTELNVGIDFNWEYPSSKHQHKKLVNRDLKTQSGSEMKKFLSTLTIDGVTRSDQGLYTCAASSGLMTKKNSTFVRVHEKGGSSKCA
light: DIQMTQSPSSLSASVGDRVTITCRASQDIGISLNWYQQEPGKAIKRLIYATSSLDSGVPKRFSGSRSGTEYTLTISSLESEDFADYYCLQYASSPYTFGGGTKLEIKRTVAAPSVFIFPPSDEQLKSGTASVVCLLNNFYPREAKVQWKVDNALQSGNSQESVTEQDSKDSTYSLSSTLTLSKADYEKHKVYACEVTHQGLSSPVTKSFNRGES
modifications: chain 1 pos 676: Cys carrying 20 kDa linear PEG-maleimide, written C (two PEG per antibody, one on each heavy chain).
notes: All interchain disulfide bonds removed
B2: PRO593, PEGylated with two 40 kDa branched PEG (Fc fusion)
heavy: B1 heavy
light: B1 light
modifications: chain 1 pos 676: Cys carrying 40 kDa branched PEG-maleimide, written C (one PEG per heavy chain, two per antibody)

Target: T1, rabbit Tie2 (form not stated) (rabbit)
T1 construct: also called rabbit ortholog of Tie-2
Assay: SPR, summary table, column Rabbit Tie2, Kd [M]

Row | Binder | Kd [nM]
1 | B1 | < 0.127
2 | B2 | < 0.13
